Patent publication US20100221262A1 (Genentech, published 2010)

B1: human Unc5B-His (two N-terminal Ig-like domains of Unc5B, amino acid M1 to amino acid V243, C-terminal Histidine tag) (receptor)
chain: not shown
notes: range 1-243; The cloned range M1-V243 includes the native signal peptide; also called human Unc5B-His tagged protein; not shown: C-terminal Histidine tag
B2: human Unc5B-Fc (two N-terminal Ig-like domains of Unc5B, amino acid M1 to amino acid V243, fused to the Fc portion of human IgG1) (Fc fusion)
chain: not shown
notes: range 1-243; not shown: Fc portion of human IgG1

Columns and labels:
[1] = target: T1, murine Netrin-1-Fc (Laminin V and VI homology domains, amino acid M1 to amino acid P455, fused to the Fc … (murine; human, UniProt O09118 25-455); assay: SPR (ProteOn), Unc5B-His immobilised, mNetrin-1 injected at 250 nM
Protocol: (§1) Binding experiments were performed by surface plasmon resonance SPR measurements on a ProteOn XPR36 instrument (Bio-Rad Laboratories, Inc.) at 25° C. In accordance with common SPR terminology, proteins that are immobilized onto the sensor chip are referred to as ‘ligands’, whereas binding partners injected in solution are referred to as ‘analytes’.
(§2) For binding competition experiments human Unc5B-Fc and Unc5B-His proteins were used as ligands and immobilized at high surface densities (3000-4000 RU) on an activated ProteOn GLC sensor chip (Bio-Rad Laboratories, Inc.). Unc5B antibodies and Netrin-Fc were used as analytes. To perform binding assays, analytes and 1:1 molar mixtures of analytes were injected in PBS, 0.005% v/v Tween-20, pH 7.4, at a flow rate of 100 μl/min and sensorgrams for association and dissociation phases were recorded. Blank surfaces are used for background corrections. Analytes are injected for 240 s and allowed to dissociate for 600 s. […]
(§3) For the SPRs binding experiments Unc5B-His and -Fc proteins were immobilized onto a ProteOn GLC sensor chips and mNetrin-1, Unc5B antibodies or equimolar mixtures of Unc5B antibodies and Netrin-1 were injected as indicated at a concentration of 250 nM. Binding sensorgrams were recorded for association and dissociation reactions. […]

[2] = target: T1, murine Netrin-1-Fc (Laminin V and VI …); assay: SPR (ProteOn), Unc5B-Fc immobilised, mNetrin-1 injected at 250 nM
Protocol: as §1, §2, §3

Row | Binder | binding result [1] | binding result [2]
1 | B1 | binds | –
2 | B2 | – | binds
